Experimental findings from publication PMC3541965 are described below.

The target of test [1] is SRP(∆FL), SRP(C235) labeled with DACM or acrylodan (E. coli) (UniProt P0AGD7). Put plainly: time course of acrylodan fluorescence.
Test [2] concerns the target Cm-labeled RNC bearing the engineered signal sequence 1A9L. Put plainly: FRET or BRET. Background: In BRET a luciferase serves as donor, and the signal depends on an acceptor being close.
In test [3] the target is RNC bearing the nascent chain of FtsQ (UniProt P06136). The test is described as follows: fluorescence polarisation.
Chain of RNC bearing the nascent chain of FtsQ (P06136 whole entry, looked up): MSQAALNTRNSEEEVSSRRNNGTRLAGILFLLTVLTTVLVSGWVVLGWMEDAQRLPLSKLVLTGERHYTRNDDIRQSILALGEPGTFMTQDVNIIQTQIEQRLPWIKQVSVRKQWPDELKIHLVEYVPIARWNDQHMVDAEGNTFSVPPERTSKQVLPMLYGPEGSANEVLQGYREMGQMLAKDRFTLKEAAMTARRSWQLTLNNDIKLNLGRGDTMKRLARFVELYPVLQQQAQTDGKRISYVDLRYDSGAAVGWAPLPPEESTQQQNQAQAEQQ
Test [4] deals with RNC bearing the nascent chain of firefly luciferase (firefly) [luciferase: P08659]. The test is described as follows: fluorescence polarisation. For orientation: Fluorescence polarisation rises when a labelled molecule tumbles more slowly, as on binding a larger partner.
Chain of RNC bearing the nascent chain of firefly luciferase (firefly) [luciferase: P08659] (P08659 whole entry, looked up): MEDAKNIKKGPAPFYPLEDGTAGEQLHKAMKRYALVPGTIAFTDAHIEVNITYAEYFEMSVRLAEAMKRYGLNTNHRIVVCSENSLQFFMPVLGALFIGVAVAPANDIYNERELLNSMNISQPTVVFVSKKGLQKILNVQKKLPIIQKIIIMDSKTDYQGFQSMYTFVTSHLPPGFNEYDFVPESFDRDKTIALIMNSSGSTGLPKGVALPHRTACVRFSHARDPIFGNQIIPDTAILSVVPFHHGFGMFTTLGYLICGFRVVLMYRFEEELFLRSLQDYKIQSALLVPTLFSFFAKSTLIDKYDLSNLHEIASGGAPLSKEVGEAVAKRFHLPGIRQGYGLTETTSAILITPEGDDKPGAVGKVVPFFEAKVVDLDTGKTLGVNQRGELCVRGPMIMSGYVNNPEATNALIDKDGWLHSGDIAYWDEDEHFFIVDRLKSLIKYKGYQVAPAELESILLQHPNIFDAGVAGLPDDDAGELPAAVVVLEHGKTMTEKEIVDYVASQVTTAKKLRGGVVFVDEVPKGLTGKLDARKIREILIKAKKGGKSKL

Where only a bound is given, the exact number is not on record here.

Take “FtsY (from UniProt P10121 1-497) (receptor)”: in test [1], the fold slower dissociation rate constant against wild-type SRP came out at 80 fold.
The substance “SRP(LM→AA) with BODIPY-FL labeled at residue 421 of Ffh (from UniProt P0AGD7 1-453) (complex)” had a fold weaker Kd (koff/kon) against wild-type SRP in test [2] of 6 fold.
With “SRP(LM→AA) with fluorescein-labeled Ffh(C421) (from UniProt P0AGD7 1-453) (complex)”, in test [3], the fold change of Kd against wild-type SRP was under 3 fold.
With “SRP(∆FL) with fluorescein-labeled Ffh(C421) (from UniProt P0AGD7 1-453) (complex)”, the fold change of Kd against wild-type SRP in test [3] was under 3 fold.
The substance “SRP(∆FL) with BODIPY-FL labeled at residue 421 of Ffh (from UniProt P0AGD7 1-453) (complex)” returned a fold weaker Kd (koff/kon) against wild-type SRP in test [2] of 2 fold.
Broadly, the Kd is the concentration at which binding is half-saturated. Take “wild-type SRP with fluorescein-labeled Ffh(C421) (from UniProt P0AGD7 1-453) (complex)”: the results for the Kd in test [4] and in test [3] were 128 nM and 1.7 nM, respectively.
